We go through 24 molecules from patent publication US20250313632A1.

Substitutions are numbered along the chain they refer to.

In test [1] the target is human B7-H3 expressed on A375 tumor cells (human) (UniProt Q5ZPR3). In words: flow cytometry on A375 cells, MFI(PE); unit from the axis Conc (nM); fit value of a flat control curve. (A flow cytometer gives signals particle by particle.)
For test [2] the target is unchanged. Briefly: flow cytometry on A375 cells, MFI(PE); unit from the axis Conc(nM); fit value of a flat control curve.
The target of test [3] is human B7-H3 protein (human) (UniProt Q5ZPR3). Briefly: Octet (BLI) epitope binning on captured human B7-H3; competitor AHP05562. In general terms: Biolayer interferometry detects binding as a change in optical thickness at a sensor tip.
The target is the same in test [4]. Briefly: Octet (BLI) epitope binning on captured human B7-H3; competitor 72D1D11.
Test [5] has the same target. Briefly: Octet (BLI) epitope binning on captured human B7-H3; competitor CA84D.
The target of test [6] is human B7-H3 expressed on A375 tumor cells (human) (UniProt Q5ZPR3). In words: flow cytometry on A375.S2 cells, MFI(647); unit from the axis Conc (nM).
Test [7] addresses human B7-H3 protein (human) (UniProt Q5ZPR3). In words: Octet (BLI) epitope binning on captured human B7-H3; competitor AHP06345.
Test [8] deals with human B7-H3 expressed on A375 tumor cells (human) (UniProt Q5ZPR3). In words: flow cytometry on A375 cells, MFI(PE); unit from the axis Conc (nM).
For test [9] the target is unchanged. The test is described as above. The source holds these as a separate data set.
Test [10] shares this target. The description is as above. The source holds these as a separate data set.
Test [11] has the same target. The description is as above. The source holds these as a separate data set.
The target is the same in test [12]. Briefly: flow cytometry on A375 cells, MFI(647); unit from the axis Conc (nM).
Test [13] shares this target. Briefly: flow cytometry on A375 cells, MFI(PE); unit from the axis Conc (nM). This is another data set of the same source.
Test [14] has the same target. In words: flow cytometry on A375 cells, MFI(647); unit from the axis Conc (nM); fit value of a flat curve.
The target of test [15] is human B7-H3 (4Ig) protein (his tag) (human) (UniProt Q5ZPR3). In words: SPR (Biacore T200), antibody captured on Protein A chip, B7-H3 injected, 1:1 model. Background: In SPR one partner is held on a chip, and binding of the other changes the refractive index at the surface.
The target in test [16] is human B7-H3 expressed on A375 tumor cells (human) (UniProt Q5ZPR3). Briefly: flow cytometry on A375 cells, MFI(PE); unit from the axis Conc(nM).

In the case of hIgG (antibody), the EC50 came to 1970 µM in test [1] and 0.014 µM in test [2].

B1: 429H9F10 (antibody, V domains shown)
VH: QIQLVQSGPELKKPGETVKISCKASGYTFTYYGLNWVKQAPGKGLRWMGWINTSSGVPTYADDFKGRFAISLESSASTVFLEISNLKNEDTAAYFCAKDDGYFYTMDHWGQGTSVTVSS
VL: DIVMTQPPLSLPVSLGDQASISCRSSQSLVHNNGKTYLHWYLQKPGQSPKLLIYKVSNRFSGVPDRFSGSGSGTDFTLKISRVETEDLGVYFCSQSTQVPWTFGGGTKLEIK
B1: the inhibition ratio is -22.4% in test [3], 98.9% in test [4], -8% in test [5] and -11.5% in test [7]. The concentration for a half-maximal effect (EC50) in test [6] was determined as 0.0007 µM.

B2: 72D1D11-z16 (antibody, V domains shown)
VH: QIQLVQSGSELKKPGASVKVSCKASGYTFTNLGLNWVKQAPGQGLKWMGWINTAGGQPTYAEDFKGRCVFSLDTSVSTAYLQISSLKAEDTAVYFCARDDGYYYTMDYWGQGTTVTVSS
VL: B1 VL with P7S, S14T, L15P, D17E, Q18P, N32S, K50Q, T85A, L88V, Q98H
In test [8], B2 showed a concentration giving a half-maximal response (EC50) of 0.00032 µM.

B3: 72D1D11-p1 (antibody, V domains shown)
VH: QIQLVQSGPELKKPGETVKISCKASGYTFTNLGLNWVKQAPGKGLKWMGWINTAGGQPTYAEDFKGRCAFSLETSASTAYLQINNLKNEDTATYFCARDDGYYYTMDYWGQGTSVTVSS
VL: B1 VL with P7T, N32S, G34A, T85A, Q98H
In turn, B3 returned an EC50 in test [9] of 0.00049 µM.

B4: 72D1D11-z14 (antibody, V domains shown)
VH: B2 VH
VL: B1 VL with P7T, S14T, L15P, D17E, Q18P, N32S, K50Q, T85A, L88V, Q98H
B4 returned a concentration for a half-maximal effect (EC50) in [8] of 0.00057 µM.

B5: 72D1D11-p2 (antibody, V domains shown)
VH: B3 VH
VL: B1 VL with P7T, N32S, N33Q, T85A, Q98H
For the molecule B5, in [9], the EC50 came out at 0.00054 µM.

B6: 72D1D11-z12 (antibody, V domains shown)
VH: B2 VH with I2V, K38R
VL: B1 VL with P7S, S14T, L15P, D17E, Q18P, N32S, K50Q, T85A, L88V, Q98H
Molecule B6 gave an EC50 in test [8] of 0.00035 µM. This lies in the sub-nanomolar range.

B7: 72D1D11-z8 (antibody, V domains shown)
VH: B2 VH with I2V, K38R, K46E, F95Y
VL: B1 VL with P7S, S14T, L15P, D17E, Q18P, N32S, K50Q, T85A, L88V, Q98H
As to B7, the EC50 in test [10] stood at 0.00046 µM.

B8: 81C8A1-z3 (antibody, V domains shown)
VH: QVTLKESGPALVKPTQTLTLTCTFSGFSLSTSGMGVSWIRQPPGKALEWLAHIYWDDDRRYNPSLKSRLTISKDTSKNQVVLTMTNMDPVDTATYYCARSPYGSEAYWGQGTLVTVSS
VL: EIVLTQSPDFQSVTPKEKVTITCRASSSVSFIQWYQQKPDQSPKPWIYSPSNLASGVPSRFSGSGSGTDFTLTINSLEAEDAATYYCQQWSSYPWTFGQGTKVEIK
Molecule B8 came in with a half-maximal effective concentration (EC50) in [11] of 0.00023 µM.

B9: 81C8A1-z8 (antibody, V domains shown)
VH: B8 VH with K73R
VL: B8 VL with T5S, F70Y
In [11], B9 came in with a half-maximal effective concentration (EC50) of 0.00025 µM.

B10: 81C8A1-z7 (antibody, V domains shown)
VH: B8 VH with K73R
VL: B8 VL
The molecule B10 registered a concentration for a half-maximal effect (EC50) in [11] of 0.00039 µM.

B11: 81C8A1-z4 (antibody, V domains shown)
VH: B8 VH
VL: B8 VL with T5S, F70Y
In [11], B11 returned an EC50 of 0.00028 µM.

B12: 312E1E2 (antibody, V domains shown)
VH: QVQLQQSGPELVRPGVSVKISCKGSGYTFTDYAMHWVKQSHAKSLEWIGIVSTHYGNTNYNQNFKGKATMTVDKSSSTVYMELARLTSEDSAIYYCARSEGLRLDWFAHWGQGTLVTVSA
VL: DIQMTQSPASLSASVGEIVTITCRASENIYSYLAWYQQKQGKSPHLLVYNAKTLAEGVPSRFSGSGSGTQFSLKISRLQPEDFGSYYCQNHYVFPFTFGSGTKLEIK
For B12, the inhibition ratio is -24.4% in test [3], -32.6% in test [4], -18.3% in [5] and 90% in test [7]. The molecule also came in with a concentration giving a half-maximal response (EC50) in test [6] of 0.00019 µM.

B13: 72D1D11-z3 (antibody, V domains shown)
VH: B2 VH with I2V, K38R, K46E, C68F, F95Y
VL: DIVMTQSPLSLPVTPGEPASISCRSSQSLVHSNGKTYLHWYLQKPGQSPQLLIYKVSNRFSGVPDRFSGSGSGTDFTLKISRVEAEDVGVYYCSQSTHVPWTFGGGTKLEIK
As for B13, the results for the EC50 in test [10], in [12] and in test [13] were 0.00058 µM, 0.00064 µM and 0.0004 µM, respectively.

B14: 72D1D11-z11 (antibody, V domains shown)
VH: B2 VH with I2V, K38R
VL: B13 VL
Molecule B14 returned a concentration giving a half-maximal response (EC50) in test [8] of 0.00036 µM. This counts as sub-nanomolar.

B15: 72D1D11-z7 (antibody, V domains shown)
VH: B2 VH with I2V, K38R, K46E, F95Y
VL: B13 VL
As for B15, in test [10], the EC50 came out at 0.00052 µM.

B16: 72D1D11-z13 (antibody, V domains shown)
VH: B2 VH
VL: B13 VL with S7T
Turning to B16, the EC50 in [8] came out at 0.00036 µM.

B17: 72D1D11-z15 (antibody, V domains shown)
VH: B2 VH
VL: B13 VL
With B17, the concentration giving a half-maximal response (EC50) in test [8] stood at 0.00047 µM.

B18: 72D1D11-z9 (antibody, V domains shown)
VH: B2 VH with I2V, K38R
VL: B13 VL with S7T
Take B18: the concentration for a half-maximal effect (EC50) in test [8] came out at 0.00051 µM.

B19: 72D1D11-z3p6 (antibody, V domains shown)
VH: B2 VH with I2V, K38R, K46E, C68F, F95Y, D100R
VL: B13 VL with G34A
B19 showed a 50% effective concentration (EC50) in [14] of 20.9 µM.

B20: 72D1D11-z3p8 (antibody, V domains shown)
VH: B2 VH with I2V, K38R, K46E, C68F, F95Y, D100A
VL: B13 VL with G34A
With B20, the concentration for a half-maximal effect (EC50) in test [14] came to 22.4 µM.

B21: 72D1D11-z3p7 (antibody, V domains shown)
VH: B2 VH with I2V, K38R, K46E, C68F, F95Y, D100L
VL: B13 VL with G34A
Take B21: the EC50 in test [14] is 115 µM.

B22: 81C8A1 (antibody, V domains shown)
VH: QVTLKESGPGILQPSQTLSLTCSFSGFSLSTSGMGVSWIRQPPGKGLEWLAHIYWDDDRRYNPSLKSRLTISRDTSRNQVFLQITTVDTADTATYYCARSPYGSEAYWGQGTLVIVSA
VL: QIVLSQSPTILSAFPGEKVTMTCRASSSVSFIQWYQQKSGSSPKPWIYSPSNLASGVPTRFSGSGSGTSYSLTIGRVEAEDAATYYCQQWSSYPWTFGGGTKVEIK
As for B22, the inhibition ratio was 90.6% in test [3], 95.4% in [4], -6.3% in [5] and -12.1% in test [7]. Moreover, the Kd in test [15] stood at 0.000196 µM. In test [15], the off-rate (koff) was 0.000111 s⁻¹. This molecule yielded a kon in test [15] of 567000 M⁻¹ s⁻¹. Moreover, the half-maximal effective concentration (EC50) in test [11] turned out to be 0.00025 µM; in [13], 0.00017 µM.

B23: AHP05564 (antibody, V domains shown)
VH: EVQLVETGGGVVQPGRSLRLSCAASGFTFSSSGMHWVRQAPGKGLEWVAVISYDVTNKYYVDSVKGRFTISRDNSENTLYLQMNSLRAEDTGVYYCVRDGGPRWLGWYFDLWGRGTLVTVSS
VL: NIQMTQSPSSQSASVGDRVTITCRANQAIANSLAWYQQKPGKAPKLLLFGTSLLHSGVPSRFSGSGSGTEYTLTISSLQPDDFGTYYCQQYFSFPRTFGQGTQVDVY
B23: the inhibition ratio in test [3] was -3.53%. Also, in test [15], the equilibrium dissociation constant (Kd) came out at 0.00052 µM, the off-rate constant (koff) was 0.000862 s⁻¹ and the kon is 1.66e+06 M⁻¹ s⁻¹. In test [16], this molecule gave an EC50 of 0.0024 µM. In test [5], the inhibition ratio stood at 80.1%. Besides, the inhibition ratio in test [7] is 5.92%.

Usually EC50 stands for the concentration that produces a half-maximal response. The low end stands for greater potency, the high end for weaker potency. The term Kd denotes a measure of binding affinity in units of concentration. In general, koff refers to a measure of how fast the partners let go of each other. A higher koff goes with fast dissociation. What is called kon is the rate constant with which the complex forms.
